Laboratory results taken from US20090214603A1 (UNIVERSITY OF LOUISVILLE RESEARCH FOUNDATION, published 2009).

What was measured:
Test in all cases: cell-based or functional assay
[1] = target: recombinant Mfa1 protein (rMfa1), full-length Mfa1 of P. gingivalis 33277 with a C-terminal penta-histidine tag (Porphyromonas gingivalis) (UniProt B2RHG1)
[2] = target: minor fimbrial antigen Mfa1 of Porphyromonas gingivalis, on intact P. gingivalis ATCC 33277 cells (Porphyromonas gingivalis) (UniProt B2RHG1)
[3] = target: T1, minor fimbrial antigen Mfa1 of Porphyromonas gingivalis, on intact P. gingivalis ATCC 33277 cells (Porphyromonas gingivalis, UniProt B2RHG1 50-563)
T1 sequence: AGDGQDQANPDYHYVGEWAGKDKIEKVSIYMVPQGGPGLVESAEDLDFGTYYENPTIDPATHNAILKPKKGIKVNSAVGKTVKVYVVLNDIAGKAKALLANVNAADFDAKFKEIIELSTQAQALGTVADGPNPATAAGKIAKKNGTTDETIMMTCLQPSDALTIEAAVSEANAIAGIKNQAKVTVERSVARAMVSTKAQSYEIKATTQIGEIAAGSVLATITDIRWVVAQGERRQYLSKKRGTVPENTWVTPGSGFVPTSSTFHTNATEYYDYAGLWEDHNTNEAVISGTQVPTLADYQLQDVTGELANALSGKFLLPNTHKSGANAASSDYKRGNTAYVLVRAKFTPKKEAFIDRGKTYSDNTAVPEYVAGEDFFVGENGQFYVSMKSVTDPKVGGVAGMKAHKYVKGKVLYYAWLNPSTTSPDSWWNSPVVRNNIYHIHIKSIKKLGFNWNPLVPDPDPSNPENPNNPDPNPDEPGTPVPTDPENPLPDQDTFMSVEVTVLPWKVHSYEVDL

Sequence of recombinant Mfa1 protein (rMfa1), full-length Mfa1 of P. gingivalis 33277 with a C-terminal penta-histidine tag (Porphyromonas gingivalis) (B2RHG1 20-563, tags left off): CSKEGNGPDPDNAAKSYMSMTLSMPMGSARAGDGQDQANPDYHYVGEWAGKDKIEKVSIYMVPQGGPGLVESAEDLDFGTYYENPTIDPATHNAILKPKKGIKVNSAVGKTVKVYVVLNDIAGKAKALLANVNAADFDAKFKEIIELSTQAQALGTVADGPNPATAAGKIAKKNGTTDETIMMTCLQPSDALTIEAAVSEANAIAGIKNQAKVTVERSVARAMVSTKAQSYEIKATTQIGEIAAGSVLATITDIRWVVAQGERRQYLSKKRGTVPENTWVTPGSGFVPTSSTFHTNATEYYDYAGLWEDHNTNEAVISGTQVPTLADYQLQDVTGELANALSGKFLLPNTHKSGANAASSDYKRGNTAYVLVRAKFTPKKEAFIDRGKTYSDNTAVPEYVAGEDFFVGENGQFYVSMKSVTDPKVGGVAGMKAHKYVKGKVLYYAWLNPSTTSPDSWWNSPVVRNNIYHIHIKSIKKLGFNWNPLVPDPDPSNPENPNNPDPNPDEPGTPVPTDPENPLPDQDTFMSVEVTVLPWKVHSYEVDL

BAR peptide (SspB Adherence Region), synthetic peptide comprising residues 1167 to 1193 of the SspB (antigen I/II) protein of S. gordonii
relative density (R.D.) of remaining BAR peptide after 5 minutes with P. gingivalis SMF1 and rMfa1 (relative density) [1]: 47.3
relative density (R.D.) of remaining BAR peptide after 30 minutes with P. gingivalis SMF1 and rMfa1 (relative density) [1]: 8.2

BAR-X, BAR analog in which the internal variable residues in VXXLL were altered to Pro and Gly (VPGLL) (peptide)
inhibition of biofilm formation at 3.38 µM peptide [2]: 15%

BAR-XI, BAR analog in which the positively charged Lys residues flanking VXXLL were altered to Asp (peptide)
inhibition of biofilm formation [2]: 40%

BAR-II, derivative of the BAR peptide containing the Arg/Asn1182 and Ile/Val1185 substitutions
I50 of inhibition of P. gingivalis adherence and biofilm formation [2]: 0.52 µM
fold difference of I50 against BAR [2]: 2.5 fold
inhibition of adherence and formation of P. gingivalis microcolonies on the streptococcal substrate at 0.34 µM peptide [2]: 25%
inhibition of adherence and formation of P. gingivalis microcolonies on the streptococcal substrate at 0.85 µM peptide [2]: 82%

BAR-III, cyclic conformationally constrained disulfide bridged BAR peptide with Cys substituted for Leu1177 and Leu1191
specific activity of biofilm inhibition against BAR (fold less than BAR) [2]: 13

LEAAPKKVQDLLKKANITVKGAFQLFS
% inhibition of microcolony formation relative to 0 µM, 0.169 µM BAR, with pepstatin A [3]: 19.9%
% inhibition of microcolony formation relative to 0 µM, 0.169 µM BAR, without pepstatin A [3]: 4.99%
% inhibition of microcolony formation relative to 0 µM, 0.338 µM BAR, with pepstatin A [3]: 44.6%
% inhibition of microcolony formation relative to 0 µM, 0.338 µM BAR, without pepstatin A [3]: 18.6%
% inhibition of microcolony formation relative to 0 µM, 0.845 µM BAR, with pepstatin A [3]: 67.7%
% inhibition of microcolony formation relative to 0 µM, 0.845 µM BAR, without pepstatin A [3]: 42.5%
% inhibition of microcolony formation relative to 0 µM, 1.65 µM BAR, with pepstatin A [3]: 97.8%
% inhibition of microcolony formation relative to 0 µM, 1.65 µM BAR, without pepstatin A [3]: 93.4%
